Laboratory results as given in US20160159910A1 (Genentech, published 2016).

How the values were obtained:
[1] = molecular target: T1, human B7-H4 S114A glycosylation mutant (human, UniProt Q7Z7D3 29-282); experiment: FACS on 293 cells transfected with S114A human B7-H4 (glycosylation independence)
T1 construct: Full-length human B7-H4 membrane construct with S114 changed to alanine to prevent N-linked glycosylation at N112-S114; transiently expressed on 293 cells; also called mutated S114A human B7-H4; recombinant human B7-H4 S114A
T1 sequence: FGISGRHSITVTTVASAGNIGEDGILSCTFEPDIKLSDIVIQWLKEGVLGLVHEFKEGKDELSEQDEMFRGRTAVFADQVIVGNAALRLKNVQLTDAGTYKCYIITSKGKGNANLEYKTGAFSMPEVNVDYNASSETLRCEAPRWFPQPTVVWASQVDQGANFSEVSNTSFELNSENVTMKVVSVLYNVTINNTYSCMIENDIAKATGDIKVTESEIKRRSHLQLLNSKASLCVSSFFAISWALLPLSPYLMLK

[2] = molecular target: T2, human B7-H4 (human, UniProt Q7Z7D3 29-282); experiment: Scatchard analysis, 125I-antibody radioligand cell binding on stably transfected 293 cells
T2 construct: On stably transfected 293 cells (recombinant) or on MX-1 / SKBR3 tumor cells (endogenous); the cell is named under assay; also called huB7-H4; hB7-H4
T2 sequence: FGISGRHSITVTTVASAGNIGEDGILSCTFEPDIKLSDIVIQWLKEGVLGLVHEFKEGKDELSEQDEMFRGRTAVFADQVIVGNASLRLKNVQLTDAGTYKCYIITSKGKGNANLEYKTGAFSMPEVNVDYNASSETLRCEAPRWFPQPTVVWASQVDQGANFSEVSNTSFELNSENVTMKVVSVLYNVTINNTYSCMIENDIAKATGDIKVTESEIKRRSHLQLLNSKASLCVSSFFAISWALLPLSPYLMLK
Method: (§1) Competition assay mixtures of 50 μL volume containing a fixed concentration of [I¹²⁵] labeled antibody and decreasing concentrations of serially diluted, unlabeled antibody were placed into 96-well plates. […] Cells were detached from the flask using Sigma Cell Dissociation Solution and were washed with binding buffer, which consisted of Dulbecco's Modified Eagle Medium (DMEM) with 1% bovine serum albumin (BSA), […] and 0.1% sodium azide. The washed cells were added to the 96 well plates at a density of 100,000 cells in 0.2 mL of binding buffer. The final concentration of the [I¹²⁵] labeled antibody in each well was ˜250 pM. The final concentration of the unlabeled antibody in the competition assay ranged from 1000 nM through ten 2-fold dilution steps to a 0 nM buffer-only assay. Competition assays were carried out in triplicate. Competition assays were incubated for 2 hours at room temperature. After the 2-hour incubation, the competition assays were transferred to a Millipore Multiscreen filter plate (Billerica, Mass.) and washed 4 times with binding buffer to separate the free from bound [I¹²⁵] labeled antibody. The filters were counted on a Wallac Wizard 1470 gamma counter (PerkinElmer Life and Analytical Sciences Inc.; Wellesley, Mass.). The binding data was evaluated using NewLigand software (Genentech), which uses the fitting algorithm of Munson and Robard to determine the binding affinity of the antibody (Munson and Robard 1980).

[3] = molecular target: T3, cynomolgus monkey B7-H4 (cynomolgus monkey, UniProt Q7Z7D3 29-282 (human entry)); experiment: as above
T3 construct: On stably transfected 293 cells; also called cyno B7-H4; recombinant cynomolgus monkey B7-H4
T3 chain: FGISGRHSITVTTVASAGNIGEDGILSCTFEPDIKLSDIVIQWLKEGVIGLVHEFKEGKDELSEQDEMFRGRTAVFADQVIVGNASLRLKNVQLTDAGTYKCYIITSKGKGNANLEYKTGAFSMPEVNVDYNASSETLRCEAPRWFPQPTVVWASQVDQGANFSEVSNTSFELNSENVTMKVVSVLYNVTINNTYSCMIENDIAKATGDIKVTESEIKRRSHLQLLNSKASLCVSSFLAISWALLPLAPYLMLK
Method: as §1

[4] = molecular target: T4, mouse B7-H4 (mouse, UniProt Q7TSP5 29-283); experiment: as above
T4 construct: On stably transfected 293 cells; also called muB7-H4; recombinant mouse B7-H4
T4 sequence: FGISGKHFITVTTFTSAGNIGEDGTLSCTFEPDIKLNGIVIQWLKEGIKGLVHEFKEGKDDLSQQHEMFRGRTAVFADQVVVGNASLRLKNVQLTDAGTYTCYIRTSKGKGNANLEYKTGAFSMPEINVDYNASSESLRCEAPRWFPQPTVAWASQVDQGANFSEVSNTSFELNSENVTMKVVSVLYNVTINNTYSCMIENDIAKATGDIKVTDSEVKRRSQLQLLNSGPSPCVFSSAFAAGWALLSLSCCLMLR
Method: as §1

[5] = molecular target: T5, rat B7-H4 (rat, UniProt Q501W4 29-282); experiment: as above
T5 construct: On stably transfected 293 cells; also called recombinant rat B7-H4
T5 sequence: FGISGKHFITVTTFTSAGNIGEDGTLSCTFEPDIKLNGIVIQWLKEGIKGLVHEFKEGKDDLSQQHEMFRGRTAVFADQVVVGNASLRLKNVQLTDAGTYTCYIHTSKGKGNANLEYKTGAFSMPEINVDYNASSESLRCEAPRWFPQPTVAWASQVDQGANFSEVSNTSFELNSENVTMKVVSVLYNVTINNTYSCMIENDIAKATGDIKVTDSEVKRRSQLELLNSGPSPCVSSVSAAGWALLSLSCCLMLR
Method: as §1

[6] = molecular target: T2, human B7-H4; experiment: cell-based or functional assay

B1: chimeric antibody ch9B9 (antibody, human IgG1, V domains shown)
VH: QVQLQQSGAELMKPGASVKMSCKATGYTFSSYWIEWVKQRPGHGLEWIGEILPGTSITTYNAKFKVKATFTADTSSNTAYMQLSSLTSEDSAVYFCARYYFGSSSFYFDYWGQGTSLTVSS
VL: QAVVTQESALTTSPGDTVTLTCRSSTGAVTTSNYANWVQEKPDHLFTGLIGGTNNRVPGVPARFSGSLIGDKAALTITGAQTEDEAMYFCALWYNNHWVFGGGTKLE
notes: also called antibody 9B9
fold binding over the isotype control [1]: 100 fold
Kd [2]: 6.6 nM
Kd [3]: 5.2 nM
Kd [4]: 13.7 nM
Kd [5]: 4.7 nM

B2: hu1D11v1.9-varD-vc-MMAE (antibody)
heavy: not shown
light: DIQMTQSPSSLSASVGDRVTITCKASQGFNKYVAWYQQKPGKAPKLLIYYTSTLQPGVPSRFSGSGSGRDYTLTISSLQPEDFATYYCLQYGDLLYAFGQGTKVEIKRTVAAPSVFIFPPSDEQLKSGTASVVCLLNNFYPREAKVQWKVDNALQSGNSQESVTEQDSKDSTYSLSSTLTLSKADYEKHKVYACEVTHQGLSSPVTKSFNRGEC
modifications: MC-vc-PAB-MMAE conjugated to reduced cysteine residues of the antibody (sites not given); DAR ~3
EC50 of in vitro killing (CellTiter-Glo cell viability, 4 days) of 293 cells over-expressing recombinant human B7-H4 [6]: 0.0554 µg/mL

B3: hu1D11v1.9-varD IgG1 A118C-vc-MMAE (antibody)
heavy: not shown
light: DIQMTQSPSSLSASVGDRVTITCKASQGFNKYVAWYQQKPGKAPKLLIYYTSTLQPGVPSRFSGSGSGRDYTLTISSLQPEDFATYYCLQYGDLLYAFGQGTKVEIKRTVAAPSVFIFPPSDEQLKSGTASVVCLLNNFYPREAKVQWKVDNALQSGNSQESVTEQDSKDSTYSLSSTLTLSKADYEKHKVYACEVTHQGLSSPVTKSFNRGEC
modifications: MC-vc-PAB-MMAE on the engineered cysteine A118C (EU numbering); DAR ~2
EC50 of in vitro killing (CellTiter-Glo cell viability, 4 days) of 293 cells over-expressing recombinant human B7-H4 [6]: 0.0819 µg/mL

B4: hu22C10v2.7-vc-MMAE (antibody)
heavy: not shown
light: DIQMTQSPSSLSASVGDRVTITCSATSSISYMHWYQQKPGKAPKGWIYDTSKLAHGVPSRFSGSGSGTDFTLTISSLQPEDFATYYCHQRRSYPFTFGQGTKVEIKRTVAAPSVFIFPPSDEQLKSGTASVVCLLNNFYPREAKVQWKVDNALQSGNSQESVTEQDSKDSTYSLSSTLTLSKADYEKHKVYACEVTHQGLSSPVTKSFNRGEC
modifications: MC-vc-PAB-MMAE conjugated to reduced cysteine residues of the antibody (sites not given); DAR ~3
EC50 of in vitro killing (CellTiter-Glo cell viability, 4 days) of 293 cells over-expressing recombinant human B7-H4 [6]: 0.0339 µg/mL

B5: hu22C10v2.7 IgG1 A118C-vc-MMAE (antibody)
heavy: not shown
light: DIQMTQSPSSLSASVGDRVTITCSATSSISYMHWYQQKPGKAPKGWIYDTSKLAHGVPSRFSGSGSGTDFTLTISSLQPEDFATYYCHQRRSYPFTFGQGTKVEIKRTVAAPSVFIFPPSDEQLKSGTASVVCLLNNFYPREAKVQWKVDNALQSGNSQESVTEQDSKDSTYSLSSTLTLSKADYEKHKVYACEVTHQGLSSPVTKSFNRGEC
modifications: MC-vc-PAB-MMAE on the engineered cysteine A118C (EU numbering); DAR ~2
EC50 of in vitro killing (CellTiter-Glo cell viability, 4 days) of 293 cells over-expressing recombinant human B7-H4 [6]: 0.0405 µg/mL
